From the supplement of paper PMC3353916
± gives the standard deviation of the averaged measurements.

Tested on: Sindbis virus TE/5'2J-GFP
Experiment: percent infected (GFP+ in RFP+ ISG-expressing cells); higher = more infection (less antiviral activity)
Method: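 Confirmatory testing of 87 ISGs. Triplicate wells of BHK/HA-Zeo (control) or BHK/NZAP-Zeo (ZAP) cells were transduced with lentiviruses co-expressing a human ISG plus TagRFP, then infected 48 h later with SINV TE/5'2J-GFP (moi 5). The % GFP+ cells among RFP+ cells was measured by flow cytometry at 8 h post infection. Fluc lentivirus served as control. Three independent experiments.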

[1] = experiment: confirmatory screen 1, BHK/HA-Zeo (control)
[2] = experiment: confirmatory screen 1, BHK/NZAP-Zeo (ZAP)
[3] = experiment: confirmatory screen 2, BHK/HA-Zeo (control)
[4] = experiment: confirmatory screen 2, BHK/NZAP-Zeo (ZAP)
[5] = experiment: confirmatory screen 3, BHK/HA-Zeo (control)
[6] = experiment: confirmatory screen 3, BHK/NZAP-Zeo (ZAP)
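Also: Interferon-defective BHK-21 derivatives, ZAP line overexpressing the rat ZAP N-terminal zinc finger domain fused to Zeocin resistance, GFP scored within live singlet TagRFP+ cells.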

Row | Substance | percent infected [1] [%] | percent infected [2] [%] | percent infected [3] [%] | percent infected [4] [%] | percent infected [5] [%] | percent infected [6] [%]
1 | MSEIRKDTLKAILLELECHFTWNLLKEDIDLFEVEDTIGQQLEFLTTKSRLALYNLLAYVKHLKGQNKDALECLEQAEEIIQQEHSDKEEVRSLVTWGNYAWVYYHMDQLEEAQKYTGKIGNVCKKLSSPSNYKLECPETDCEKGWALLKFGGKYYQKAKAAFEKALEVEPDNPEFNIGYAITVYRLDDSDREGSVKSFSLGPLRKAVTLNPDNSYIKVFLALKLQDVHAEAEGEKYIEEILDQISSQPYVLRYAAKFYRRKNSWNKALELLKKALEVTPTSSFLHHQMGLCYRAQMIQIKKATHNRPKGKDKLKVDELISSAIFHFKAAMERDSMFAFAYTDLANMYAEGGQYSNAEDIFRKALRLENITDDHKHQIHYHYGRFQEFHRKSENTAIHHYLEALKVKDRSPLRTKLTSALKKLSTKRLCHNALDVQSLSALGFVYKLEGEKRQAAEYYEKAQKIDPENAEFLTALCELRLSI [IFIT5] | 81.6 ± 2.9 | 50.4 ± 1.2 | 95.17 ± 0.24 | 95.34 ± 0.45 | 88.13 ± 0.37 | 90.56 ± 0.79
2 | MDFKIEHTWDGFPVKHEPVFIRLNPGDRGVMMDISAPFFRDPPAPLGEPGKPFNELWDYEVVEAFFLNDITEQYLEVELCPHGQHLVLLLSGRRNVWKQELPLSFRMSRGETKWEGKAYLPWSYFPPNVTKFNSFAIHGSKDKRSYEALYPVPQHELQQGQKPDFHCLEYFKSFNFNTLLGEEWKQPESDLWLIEKCDI [C4orf33] | 96.1 ± 1.3 | 85.8 ± 1.1 | 96.38 ± 0.37 | 94.84 ± 0.39 | 93.81 ± 0.1 | 93.56 ± 0.3
3 | MPRQLSAAAALFASLAVILHDGSQMRAKAFPETRDYSQPTAAATVQDIKKPVQQPAKQAPHQTLAARFMDGHITFQTAATVKIPTTTPATTKNTATTSPITYTLVTTQATPNNSHTAPPVTEVTVGPSLAPYSLPPTITPPAHTTGTSSSTVSHTTGNTTQPSNQTTLPATLSIALHKSTTGQKPVQPTHAPGTTAAAHNTTRTAAPASTVPGPTLAPQPSSVKTGIYQVLNGSRLCIKAEMGIQLIVQDKESVFSPRRYFNIDPNATQASGNCGTRKSNLLLNFQGGFVNLTFTKDEESYYISEVGAYLTVSDPETIYQGIKHAVVMFQTAVGHSFKCVSEQSLQLSAHLQVKTTDVQLQAFDFEDDHFGNVDECSSDYTIVLPVIGAIVVGLCLMGMGVYKIRLRCQSSGYQRI [LAMP3] | 95.8 ± 1.7 | 52.1 ± 5.6 | 97.55 ± 0.14 | 96.16 ± 0.23 | 86.4 ± 2.6 | 89.93 ± 0.19
4 | MNTIVFNKLSGAVLFEDGGASERERGGRPYSGVLDSPHARPEVGIPDGPPLKDNLGLRHRRTGARQNGGKVRHKRQALQDMARPLKQWLYKHRDNPYPTKTEKILLALGSQMTLVQVSNWFANARRRLKNTVRQPDLSWALRIKLYNKYVQGNAERLSVSSDDSCSEDGENPPRTHMNEGGYNTPVHHPVIKSENSVIKAGVRPESRASEDYVAPPKYKSSLLNRYLNDSLRHVMATNTTMMGKTRQRNHSGSFSSNEFEEELVSPSSSETEGNFVYRTDTLENGSNKGESAANRKGPSKDDTYWKEINAAMALTNLAQGKDKLQGTTSCIIQKSSHIAEVKTVKVPLVQQF [MKX] | 95 ± 2.1 | 82.42 ± 0.67 | 95.17 ± 0.2 | 92.86 ± 0.56 | 79 ± 1.7 | 86.15 ± 0.099
5 | MPGKKARKNAQPSPARAPAELEVECATQLRRFGDKLNFRQKLLNLISKLFCSGT [PMAIP1] | 94.9 ± 1.1 | 87.9 ± 2.1 | 95.11 ± 0.24 | 93.22 ± 0.27 | 92.03 ± 0.31 | 92.36 ± 0.16
6 | MMAQSKANGSHYALTAIGLGMLVLGVIMAMWNLVPGFSAAEKPTAQGSNKTEVGGGILKSKTFSVAYVLVGAGVMLLLLSICLSIRDKRKQRQGEDLAHVQHPTGAGPHAQEEDSQEEEEEDEEAASRYYVPSYEEVMNTNYSEARGEEQNPRLSISLPSYESLTGLDETTPTSTRADVEASPGNPPDRQNSKLAKRLKPLKVRRIKSEKLHLKDFRINLPDKNVPPPSIEPLTPPPQYDEVQEKAPDTRPPD [TMEM51] | 94.9 ± 1.4 | 61.1 ± 4.6 | 95.13 ± 0.15 | 94.94 ± 0.49 | 93.31 ± 0.41 | 92.77 ± 0.37
7 | PCTK2 | 97.15 ± 0.48 | 70.7 ± 3.2 | 96.52 ± 0.12 | 94.42 ± 0.39 | 83.84 ± 0.21 | 86.8 ± 1.1
8 | MDSRVSELFGGCCRPGGGPAVGGTLKARGAGSSSGCGGPKGKKKNGRNRGGKANNPPYLPPEAEDGNIEYKLKLVNPSQYRFEHLVTQMKWRLQEGRGEAVYQIGVEDNGLLVGLAEEEMRASLKTLHRMAEKVGADITVLREREVDYDSDMPRKITEVLVRKVPDNQQFLDLRVAVLGNVDSGKSTLLGVLTQGELDNGRGRARLNLFRHLHEIQSGRTSSISFEILGFNSKGEVVNYSDSRTAEEICESSSKMITFIDLAGHHKYLHTTIFGLTSYCPDCALLLVSANTGIAGTTREHLGLALALKVPFFIVVSKIDLCAKTTVERTVRQLERVLKQPGCHKVPMLVTSEDDAVTAAQQFAQSPNVTPIFTLSSVSGESLDLLKVFLNILPPLTNSKEQEELMQQLTEFQVDEIYTVPEVGTVVGGTLSSGICREGDQLVVGPTDDGCFLELRVCSIQRNRSACRVLRAGQAATLALGDFDRALLRKGMVMVSPEMNPTICSVFEAEIVLLFHATTFRRGFQVTVHVGNVRQTAVVEKIHAKDKLRTGEKAVVRFRFLKHPEYLKVGAKLLFREGVTKGIGHVTDVQAITAGEAQANMGF [GTPBP2] | 91.5 ± 3.9 | 64.4 ± 1.3 | 94.39 ± 0.34 | 94.94 ± 0.23 | 94 ± 1.1 | 93.43 ± 0.41
9 | MPSLWDRFSSSSTSSSPSSLPRTPTPDRPPRSAWGSATREEGFDRSTSLESSDCESLDSSNSGFGPEEDTAYLDGVSLPDFELLSDPEDEHLCANLMQLLQESLAQARLGSRRPARLLMPSQLVSQVGKELLRLAYSEPCGLRGALLDVCVEQGKSCHSVGQLALDPSLVPTFQLTLVLRLDSRLWPKIQGLFSSANSPFLPGFSQSLTLSTGFRVIKKKLYSSEQLLIEEC [DDIT4] | 95.2 ± 1.2 | 76.2 ± 2.5 | 96.4 ± 0.11 | 94.99 ± 0.17 | 94.1 ± 0.29 | 92.99 ± 0.24
10 | MSSWSRQRPKSPGGIQPHVSRTLFLLLLLAASAWGVTLSPKDCQVFRSDHGSSISCQPPAEIPGYLPADTVHLAVEFFNLTHLPANLLQGASKLQELHLSSNGLESLSPEFLRPVPQLRVLDLTRNALTGLPPGLFQASATLDTLVLKENQLEVLEVSWLHGLKALGHLDLSGNRLRKLPPGLLANFTLLRTLDLGENQLETLPPDLLRGPLQLERLHLEGNKLQVLGKDLLLPQPDLRYLFLNGNKLARVAAGAFQGLRQLDMLDLSNNSLASVPEGLWASLGQPNWDMRDGFDISGNPWICDQNLSDLYRWLQAQKDKMFSQNDTRCAGPEAVKGQTLLAVAKSQ [LRG1] | 95.1 ± 1 | 68.2 ± 4.8 | 95.09 ± 0.35 | 94.92 ± 0.53 | 93.09 ± 0.65 | 94.47 ± 0.18
11 | ISG20 | 95.82 ± 0.88 | 73.1 ± 2.4 | 96.88 ± 0.17 | 95.24 ± 0.15 | 87 ± 2.5 | 90.59 ± 0.73
12 | MTTEQRRSLQAFQDYIRKTLDPTYILSYMAPWFREEEVQYIQAEKNNKGPMEAATLFLKFLLELQEEGWFRGFLDALDHAGYSGLYEAIESWDFKKIEKLEEYRLLLKRLQPEFKTRIIPTDIISDLSECLINQECEEILQICSTKGMMAGAEKLVECLLRSDKENWPKTLKLALEKERNKFSELWIVEKGIKDVETEDLEDKMETSDIQIFYQEDPECQNLSENSCPPSEVSDTNLYSPFKPRNYQLELALPAMKGKNTIICAPTGCGKTFVSLLICEHHLKKFPQGQKGKVVFFANQIPVYEQQKSVFSKYFERHGYRVTGISGATAENVPVEQIVENNDIIILTPQILVNNLKKGTIPSLSIFTLMIFDECHNTSKQHPYNMIMFNYLDQKLGGSSGPLPQVIGLTASVGVGDAKNTDEALDYICKLCASLDASVIATVKHNLEELEQVVYKPQKFFRKVESRISDKFKYIIAQLMRDTESLAKRICKDLENLSQIQNREFGTQKYEQWIVTVQKACMVFQMPDKDEESRICKALFLYTSHLRKYNDALIISEHARMKDALDYLKDFFSNVRAAGFDEIEQDLTQRFEEKLQELESVSRDPSNENPKLEDLCFILQEEYHLNPETITILFVKTRALVDALKNWIEGNPKLSFLKPGILTGRGKTNQNTGMTLPAQKCILDAFKASGDHNILIATSVADEGIDIAQCNLVILYEYVGNVIKMIQTRGRGRARGSKCFLLTSNAGVIEKEQINMYKEKMMNDSILRLQTWDEAVFREKILHIQTHEKFIRDSQEKPKPVPDKENKKLLCRKCKALACYTADVRVIEECHYTVLGDAFKECFVSRPHPKPKQFSSFEKRAKIFCARQNCSHDWGIHVKYKTFEIPVIKIESFVVEDIATGVQTLYSKWKDFHFEKIPFDPAEMSK [DDX58] | 38 ± 4.1 | 4.81 ± 4.5 | 96.53 ± 0.19 | 89.2 ± 2.2 | 75.6 ± 6 | 23.2 ± 3.1
13 | MPITRMRMRPWLEMQINSNQIPGLIWINKEEMIFQIPWKHAAKHGWDINKDACLFRSWAIHTGRYKAGEKEPDPKTWKANFRCAMNSLPDIEEVKDQSRNKGSSAVRVYRMLPPLTKNQRKERKSKSSRDAKSKAKRKSCGDSSPDTFSDGLSSSTLPDDHSSYTVPGYMQDLEVEQALTPALSPCAVSSTLPDWHIPVEVVPDSTSDLYNFQVSPMPSTSEATTDEDEEGKLPEDIMKLLEQSEWQPTNVDGKGYLLNEPGVQPTSVYGDFSCKEEPEIDSPGGDIGLSLQRVFTDLKNMDATWLDSLLTPVRLPSIQAIPCAP [IRF1] | 67.2 ± 42 | 10.7 ± 6.3 | 61.6 ± 1.6 | 1.14 ± 0.73 | 29.2 ± 22 | 0.16 ± 0.079
